A short description of data set [1]: purified protein yield per well (BCA); higher = higher soluble expression. The method in brief: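 Expression was done in E. coli C41(DE3), using 2 mL autoinduction cultures with 100 µg/mL kanamycin incubated at 37 °C for 2 h and at 18 °C for 40 h. Protein was purified on Ni-charged magnetic beads and released by SUMO protease cleavage. Yield of purified protein per well was measured with the Pierce Rapid Gold BCA kit; values below 25 ug (0.1 mg/mL) are below detection.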

A short description of data set [2]: PET hydrolysis, aromatic products released after 48 h (umol product/mg enzyme); higher = more PET depolymerization activity. The procedure: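 HTP-purified, SUMO-cleaved, tagless PET hydrolase candidates (5 ug, 1.43 mg/g PET) were incubated 48 h without shaking with 3.5 mg amorphous PET film (aFilm) or crystalline PET powder (cryPow) in 0.5 mL buffer: NaCitrate pH 4.5/5.5, NaPhosphate pH 6.5/7.5, glycine pH 8.5. Incubation was at 40 or 60 C. Aromatic products (TPA, MHET, BHET) in the supernatant were quantified by UV absorbance at 260/280 nm relative to buffer blanks and expressed per mg enzyme. LCC-ICCG was the positive control on every plate.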

Where [3] appears, read: substrate: cryPow, 40 °C, pH 4.5.
Where [4] appears, read: substrate: cryPow, 40 °C, pH 5.5.
Setting [5] is: substrate: cryPow, 40 °C, pH 6.5.
Setting [6] is: substrate: cryPow, 40 °C, pH 7.5.
[7] abbreviates: substrate: cryPow, 40 °C, pH 8.5.
Setting [8] is: substrate: cryPow, 60 °C, pH 5.5.
Where [9] appears, read: substrate: cryPow, 60 °C, pH 6.5.
Where [10] appears, read: substrate: cryPow, 60 °C, pH 7.5.
Where [11] appears, read: substrate: cryPow, 60 °C, pH 4.5.

± gives the standard deviation of the averaged measurements. Some results are limits rather than exact numbers.

Take “TAGAEPSGGAPAAGGSGCGDVADPAAQGPLHVQTYSSGLRDGPDYGSQTMHYPTDGAPPYPALVIVPGFMSLESSIADHGPHFASHGIVTLTIGTNSTMDQPPARSEALLDALETIRAEHTRAGGPLEGKLDLSRLGVMGWSMGGGGTLITVDDHPELKAAITLCAWNPGQTYRNNQVPTLLFAGTADTLAGG [TEP195]”: the “purified protein yield per well” value in data set [1] was determined as 30.1 µg. Also, the PET hydrolysis in data set [2] (setting [3]), in data set [2] (setting [4]), in data set [2] (setting [5]) and in data set [2] (setting [6]) was under 3 throughout.

In the case of “ATPARPASVAAAPAAVQRAADNPYQRGPAPTEASITAEKGPFAVETIPVPAGSGTGFNKGTVYAPTDTSEGTFGAIVVSPGFVSPEAWISWYGPRLASQGFVVMTLETNSLVDVPASRGDQLLAALDWLTGKSSVKNRIDASRTAVMGHSMGGGGTLEAANKRPSLKADIPLAPWDTNYNFPNIKTPTLIMGADNDLIAPASSMAESYYNNITTAPEKAYLLLKNAGHMTFVSPNTTIAKYSIAWMKRFVDNDTRYDQFLCPAPKPDANIAKYLDTCPNG [DP016]”, the “purified protein yield per well” value in data set [1] turned out to be 83 µg. The PET hydrolysis in data set [2] (setting [4]) was 4; in data set [2] (setting [5]), 14; in data set [2] (setting [6]), 17; in data set [2] (setting [7]) it was 4; in data set [2] (setting [8]), 10; in data set [2] (setting [9]) it was 10. The PET hydrolysis in data set [2] (setting [10]) was 7; in data set [2] (substrate: cryPow, 60 °C, pH 8.5) it was under 3.

With “ADNPYQRGPDPTPASVAAVNGPFATASVSVPAGYGFGGGMIYYPTDTSQGTFGGIAISPGYTALFSAELAWMGPWLASHGFVVIGIETNSRNDFDEARGTQLLAALDYLTQQSPVRTRVDPNRLAVSGHSMGGGGALNAAIRRPSLKAAVGLAPFLPSSNLANDRVPTMVFAGQQDTVVSPSYVTNLYNSLPATTESAYLEIAGGDHGFPVGRPNQVMIRTMLPFVKIFLDNDTRYSQFLCPLMDSTGVVTYRSTCPLLPPGLPTTPPTSTSSNPTVGPTTPSTTAPTTTPAPGGACTATYRTTNSWPGGFQGEVTITAGSSAINGWTVRWTLGSGQTISQVWNGEVSITGSTVSVRNAPYNGSLPASGSTTFGFLGGGSPSSPSLTCTSP [TEP165]”, the “purified protein yield per well” value in data set [1] worked out at 433 µg. Further, the PET hydrolysis was under 3 in data set [2] (substrate: aFilm, 40 °C, pH 4.5); under 3 in data set [2] (substrate: aFilm, 40 °C, pH 5.5); 2 ± 2.8 in data set [2] (substrate: aFilm, 40 °C, pH 6.5); under 3 in data set [2] (substrate: aFilm, 40 °C, pH 7.5); 2 ± 2.8 in data set [2] (substrate: aFilm, 60 °C, pH 4.5); under 3 in data set [2] (substrate: aFilm, 60 °C, pH 5.5). In addition, the PET hydrolysis is 1.5 ± 2.1 in data set [2] (substrate: aFilm, 60 °C, pH 6.5); under 3 in data set [2] (substrate: aFilm, 60 °C, pH 7.5); 4.5 ± 0.71 in data set [2] (setting [3]); 11 in data set [2] (setting [4]); 52 ± 2.8 in data set [2] (setting [5]); 67 ± 11 in data set [2] (setting [6]). Further, the PET hydrolysis in data set [2] (setting [11]) was found to be 12; in data set [2] (setting [8]), 25; in data set [2] (setting [9]), 46 ± 1.4; in data set [2] (setting [10]), 45.5 ± 2.1.

On to “MPQQAQAGPGNPYERGPAPTEASVTAERGPFAVSQKAVPESADGRFNKGTVYYPTDTSQGTFGAVAISPGFVSPEAAVGWLGPRLASQGFVVMTLETNTPLDFPDQRADQLLGALDWLTTSSDVRERIDASRLAVAGHSMGGGASLRASEKRPTLQAAVPLTPWHTDKTWEKDPVPTLVVGAENDTVAPVAEHAEPFYSSLSAAPEKAYLELEGADHLAPVAPNVTVAKYAISWLKRYVDDDTRYEQFLCPPPRPSSTISEYRDTCPGS [TEP193]”, for which the “purified protein yield per well” value in data set [1] is 50.4 µg. Besides, the PET hydrolysis in data set [2] (setting [3]), in data set [2] (setting [4]), in data set [2] (setting [5]) and in data set [2] (setting [6]) was under 3 throughout.

Turning to “CATAGSALVSAPSLSGDGSYEVQTYTDFPDVPEFGAATIYYPVGASEPMGGVAIAPGFTEEQRHIAWWGPRLASHGYAVLVLDTNDRRERPDARADALIAGVTLLRAEGRRRGSPLFGRIDAAKMAIMGHSMGGGGALLAADEHSDLIRAAIPFTPWEPETDLRGISAPTLVLAGAADRVAEVEGHAWRHFSMIPESTPKVYMEIAGGDHYIADTTRGMDLATVGRYAIAWLKLYVDGDEQYRDLIYGEIPPADAAKFSRYVVNP [TEP157]”, the “purified protein yield per well” value in data set [1] came out at 80.2 µg. Also, the PET hydrolysis in data set [2] (setting [3]), in data set [2] (setting [4]), in data set [2] (setting [5]), in data set [2] (setting [6]), in data set [2] (setting [11]) and in data set [2] (setting [8]) was under 3 throughout. The PET hydrolysis in data set [2] (setting [9]) and in data set [2] (setting [10]) was under 3 each time.

“AEPATIHGPAPTEESITAPTGPFEIDRETVPRSTVEGFGGGTIYYPTDTSEGTFSAVAIAPGYTAGQETLAWLGPRLASQGFVVFTIDTITTSDRPDARAEQLAASLDYLTGSSEVQDRIDPARLGVMGHSMGGGGALQAALDDPGLKAAIPMTPWNTVKDFSGVRTPTMIIGAQNDTVAPVAQHSEPFYESLPDDPGKAYLELAGASHFAPNRDDTTIAKSSIAWLKRFLDDDTRYDRFLCPPPQDPEISDYRATCPY [DP023]”: the “purified protein yield per well” value in data set [1] came out at 33 µg. Besides, the PET hydrolysis in data set [2] (setting [4]), in data set [2] (setting [5]), in data set [2] (setting [6]) and in data set [2] (setting [7]) was under 3 throughout.

Source of the values: the supplement of paper PMC12455559.
